We go through three molecules from paper PMC3416868, “The Fission Yeast GATA Factor, Gaf1, Modulates Sexual Development via Direct Down-Regulation of ste11+ Expression in Response to Nitrogen Starvation”.

For data set [1], the target named is T1, GST-Gaf1 (Schizosaccharomyces pombe (972?)) (UniProt Q10280).
T1 sequence: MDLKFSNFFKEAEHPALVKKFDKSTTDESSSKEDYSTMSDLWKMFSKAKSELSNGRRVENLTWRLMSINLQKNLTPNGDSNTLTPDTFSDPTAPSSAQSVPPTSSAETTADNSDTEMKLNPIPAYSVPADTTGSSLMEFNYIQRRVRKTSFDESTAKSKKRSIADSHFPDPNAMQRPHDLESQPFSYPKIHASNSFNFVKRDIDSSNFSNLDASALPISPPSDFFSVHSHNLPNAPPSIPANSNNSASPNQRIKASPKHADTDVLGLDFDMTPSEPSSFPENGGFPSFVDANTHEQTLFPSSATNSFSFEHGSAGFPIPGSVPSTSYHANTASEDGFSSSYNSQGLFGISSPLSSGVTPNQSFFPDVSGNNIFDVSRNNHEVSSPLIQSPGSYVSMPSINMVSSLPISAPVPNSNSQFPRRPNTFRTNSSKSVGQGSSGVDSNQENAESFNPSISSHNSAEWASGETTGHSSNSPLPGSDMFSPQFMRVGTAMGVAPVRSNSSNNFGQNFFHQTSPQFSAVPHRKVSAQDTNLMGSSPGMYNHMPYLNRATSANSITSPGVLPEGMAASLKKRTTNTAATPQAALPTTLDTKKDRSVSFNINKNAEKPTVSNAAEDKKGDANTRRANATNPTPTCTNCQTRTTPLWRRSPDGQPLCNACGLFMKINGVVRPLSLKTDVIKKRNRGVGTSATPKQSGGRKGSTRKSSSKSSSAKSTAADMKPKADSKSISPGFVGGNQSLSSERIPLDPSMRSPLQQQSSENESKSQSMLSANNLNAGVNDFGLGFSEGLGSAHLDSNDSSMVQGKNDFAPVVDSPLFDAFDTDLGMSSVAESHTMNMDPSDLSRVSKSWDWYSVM
Description: competition. As to conditions: 10 mM Tris pH 7.5, 2 mM MgCl2, 50 mM NaCl, 1 mM DTT, 5% glycerol, 2 ug poly(dI-dC) in 20 ul, room temperature, 20 min; 6% native PAGE.

The target in data set [2] is T2, GST-Gaf1 (Schizosaccharomyces pombe, UniProt Q10280 1-855).
T2 sequence: T1 sequence
Description: competition; cold PW, 100-fold, against labeled PA; 10 mM Tris pH 7.5, 2 mM MgCl2, 50 mM NaCl, 1 mM DTT, 5% glycerol, 2 ug poly(dI-dC) in 20 ul, room temperature, 20 min; 6% native PAGE. As to conditions: protein: recombinant; tags: N-terminal GST (pGEX4T3); label: 32P 5'-end (probe); blunt.

In data set [3] the target is T2, GST-Gaf1. Description: competition; cold PM, 100-fold, against labeled PA; 10 mM Tris pH 7.5, 2 mM MgCl2, 50 mM NaCl, 1 mM DTT, 5% glycerol, 2 ug poly(dI-dC) in 20 ul, room temperature, 20 min; 6% native PAGE. To be noted: protein: recombinant; tags: N-terminal GST (pGEX4T3); label: 32P 5'-end (probe).

Changes are numbered by the printed parent chain.

“GGATATCCTTTTAATATATGCTAAATGAATAGATTCTCACTATGTAAGTCACCAGGTATGTATGTATATATATATATATATACATACGCATTGGCAACCAACTAGTAAGAGTATAGAGCGAGGCGTAATACGCGATGTTACTGACAATGAAAATCAAACAAAGAAATTCAACTTTTTTAAGTCTAGCCAAAATGTGTATGAGGGGAAGGGACAAAATTCACAGGGGTTAAAGTAACATATG (double strand) [PB]”: the binding result in data set [1] was “no binding”.

B1: PW (dsDNA)
DNA 1: CATTTTGCCTTGCGCTATCTCCCTCAACGAAAAG
DNA 2: CTTTTCGTTGAGGGAGATAGCGCAAGGCAAAATG
Consider B1, for which the binding result in data set [2] is given as “binds”.

B2: PM (dsDNA)
DNA 1: B1 DNA 1 with T16A, A17T, C19G
DNA 2: B1 DNA 2 with G16C, T18A, A19T
Take B2: in data set [3], the binding result was “no binding”.
